The source of these data is paper PMC10986514.

This assay addresses SARS-CoV-2 RBD single mutant E484K (SARS-CoV-2) (UniProt P0DTC2). Put plainly: peptide or protein array.
In the case of “Tri-TMH multimodular nanobody (Ty1, MR17-K99Y and H11-H4 modules) (VHH)”, the percent decrease of the binding signal against wild-type RBD is 60%.
Take “Tri-TMV multimodular nanobody (Ty1, MR17-K99Y and VHH V modules)”: the percent decrease of the binding signal against wild-type RBD came out at 40%.
Next, “Tri-Ty1 multimodular nanobody (three Ty1 modules) (VHH)”: 96%.
